This is an account of results in the supplement of paper PMC9112550, “Optimization of the antimicrobial peptide Bac7 by deep mutational scanning” (BMC Biology, 2022).

The subject of the data set is Escherichia coli TOP10. Description: shrunken log2 fold change of peptide-encoding DNA abundance (4.5 h post-induction vs induction); higher = less antimicrobial activity (less host growth inhibition). To be noted: time post-induction: 4.5 h; library: site-saturation at positions 5, 18, 19, 20.
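Note: peptides expressed intracellularly from a pBAD plasmid library in pooled LB shake-flask culture, induced with 0.3% L-arabinose, DNA abundance read by NGS, three biological replicates, DESeq2 with apeglm shrinkage.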

For RRIRTRPPRLPRPRPRPRYLPRP, the “shrunken log2 fold change” value was -0.131.

On to RRIRVRPPRLPRPRPRPTHMPRP, for which the “shrunken log2 fold change” value stood at 0.0408.

As for RRIRWRPPRLPRPRPRPICNPRP, the “shrunken log2 fold change” value was -0.0133.

On to RRIRYRPPRLPRPRPRPKLKPRP, for which the “shrunken log2 fold change” value is -0.0928.

As for RRIRDRPPRLPRPRPRPHQFPRP, the “shrunken log2 fold change” value is -0.282.

On to RRIRHRPPRLPRPRPRPRTIPRP, for which the “shrunken log2 fold change” value was -0.344.

Turning to RRIRSRPPRLPRPRPRPLSRPRP, the “shrunken log2 fold change” value stood at 0.0301.

As to RRIRGRPPRLPRPRPRPFGTPRP, the “shrunken log2 fold change” value is 0.196.

As for RRIRGRPPRLPRPRPRPVRIPRP, the “shrunken log2 fold change” value turned out to be 0.536.

Regarding RRIRLRPPRLPRPRPRPDAHPRP, the “shrunken log2 fold change” value worked out at 0.133.

For the sequence RRIRERPPRLPRPRPRPDAVPRP, the “shrunken log2 fold change” value was -0.0146.

Turning to RRIRVRPPRLPRPRPRPQREPRP, the “shrunken log2 fold change” value is -0.0361.

Take RRIRIRPPRLPRPRPRPLMAPRP: the “shrunken log2 fold change” value was -0.408.

With RRIRERPPRLPRPRPRPKWEPRP, the “shrunken log2 fold change” value was 0.0179.

For RRIRMRPPRLPRPRPRPCISPRP, the “shrunken log2 fold change” value came to 0.00253.

As for RRIRKRPPRLPRPRPRPYHSPRP, the “shrunken log2 fold change” value was 2.07.

As for RRIRGRPPRLPRPRPRPYVDPRP, the “shrunken log2 fold change” value is -0.0322.

In the case of RRIRWRPPRLPRPRPRPAVFPRP, the “shrunken log2 fold change” value stood at 0.354.

As for RRIRPRPPRLPRPRPRPGFNPRP, the “shrunken log2 fold change” value was -0.173.

With RRIRIRPPRLPRPRPRPDKKPRP, the “shrunken log2 fold change” value was -0.0638.

Consider RRIRHRPPRLPRPRPRPDCWPRP, for which the “shrunken log2 fold change” value is 0.0871.

As to RRIRDRPPRLPRPRPRPRIDPRP, the “shrunken log2 fold change” value is 0.0784.

On to RRIRKRPPRLPRPRPRPMMPPRP, for which the “shrunken log2 fold change” value turned out to be 0.234.

Take RRIRDRPPRLPRPRPRPPKRPRP: the “shrunken log2 fold change” value is -0.0222.

For the sequence RRIRMRPPRLPRPRPRPLRQPRP, the “shrunken log2 fold change” value is -0.214.

Turning to RRIRARPPRLPRPRPRPSHHPRP, the “shrunken log2 fold change” value is -0.309.

RRIRQRPPRLPRPRPRPVKSPRP: the “shrunken log2 fold change” value came out at 0.169.

With RRIRCRPPRLPRPRPRPQTNPRP, the “shrunken log2 fold change” value is -0.374.

For RRIRIRPPRLPRPRPRPSSQPRP, the “shrunken log2 fold change” value is -0.674.

Take RRIRNRPPRLPRPRPRPNHNPRP: the “shrunken log2 fold change” value is -0.858.

Take RRIRTRPPRLPRPRPRPSKPPRP: the “shrunken log2 fold change” value is -0.487.

For RRIRQRPPRLPRPRPRPQYHPRP, the “shrunken log2 fold change” value was -0.609.

For the sequence RRIRQRPPRLPRPRPRPCVLPRP, the “shrunken log2 fold change” value was -0.298.

As to RRIRLRPPRLPRPRPRPNHNPRP, the “shrunken log2 fold change” value is -0.726.

On to RRIRLRPPRLPRPRPRPIMDPRP, for which the “shrunken log2 fold change” value was -0.0403.

Consider RRIRFRPPRLPRPRPRPTNKPRP, for which the “shrunken log2 fold change” value is -0.301.

Take RRIRSRPPRLPRPRPRPACSPRP: the “shrunken log2 fold change” value was 0.147.

For the sequence RRIRGRPPRLPRPRPRPSHHPRP, the “shrunken log2 fold change” value was -0.286.

For RRIRARPPRLPRPRPRPQSVPRP, the “shrunken log2 fold change” value is -0.037.

In the case of RRIRQRPPRLPRPRPRPQNQPRP, the “shrunken log2 fold change” value was -0.17.

In the case of RRIRYRPPRLPRPRPRPFSMPRP, the “shrunken log2 fold change” value was -0.00208.

Consider RRIRKRPPRLPRPRPRPQKKPRP, for which the “shrunken log2 fold change” value is -0.111.

For the sequence RRIRKRPPRLPRPRPRPLKSPRP, the “shrunken log2 fold change” value was 0.713.

Take RRIRIRPPRLPRPRPRPLWAPRP: the “shrunken log2 fold change” value was -0.174.

For RRIRFRPPRLPRPRPRPDLQPRP, the “shrunken log2 fold change” value is -0.0778.

As for RRIRRRPPRLPRPRPRPFQRPRP, the “shrunken log2 fold change” value was determined as 0.608.

As to RRIRSRPPRLPRPRPRPPQEPRP, the “shrunken log2 fold change” value stood at 0.295.

On to RRIRTRPPRLPRPRPRPKIEPRP, for which the “shrunken log2 fold change” value was -0.00653.

Take RRIRERPPRLPRPRPRPNREPRP: the “shrunken log2 fold change” value is -0.0209.

For the sequence RRIRGRPPRLPRPRPRPKCGPRP, the “shrunken log2 fold change” value was determined as 0.814.

On to RRIRSRPPRLPRPRPRPVGNPRP, for which the “shrunken log2 fold change” value was -0.0399.

On to RRIRVRPPRLPRPRPRPRDWPRP, for which the “shrunken log2 fold change” value stood at 0.274.

For the sequence RRIRERPPRLPRPRPRPLIWPRP, the “shrunken log2 fold change” value was -0.364.

Take RRIRVRPPRLPRPRPRPREFPRP: the “shrunken log2 fold change” value worked out at 0.126.

Turning to RRIRPRPPRLPRPRPRPPEAPRP, the “shrunken log2 fold change” value came out at 0.0126.

For RRIRRRPPRLPRPRPRPVKLPRP, the “shrunken log2 fold change” value is -0.0474.

As for RRIRPRPPRLPRPRPRPNHNPRP, the “shrunken log2 fold change” value is -0.755.

Consider RRIRDRPPRLPRPRPRPREWPRP, for which the “shrunken log2 fold change” value was -0.00146.

With RRIRFRPPRLPRPRPRPSWKPRP, the “shrunken log2 fold change” value amounted to 0.206.

As for RRIRTRPPRLPRPRPRPMVWPRP, the “shrunken log2 fold change” value is 0.57.

For RRIRERPPRLPRPRPRPKGLPRP, the “shrunken log2 fold change” value was found to be 0.0211.

Take RRIRIRPPRLPRPRPRPRQDPRP: the “shrunken log2 fold change” value was found to be 0.0231.

As to RRIRMRPPRLPRPRPRPEWPPRP, the “shrunken log2 fold change” value was found to be 0.0994.

With RRIRWRPPRLPRPRPRPQACPRP, the “shrunken log2 fold change” value came out at 0.145.

On to RRIRKRPPRLPRPRPRPMPLPRP, for which the “shrunken log2 fold change” value was -0.00591.

With RRIRGRPPRLPRPRPRPDKFPRP, the “shrunken log2 fold change” value came to 0.0879.

In the case of RRIRARPPRLPRPRPRPWWSPRP, the “shrunken log2 fold change” value came out at 0.271.

For the sequence RRIRHRPPRLPRPRPRPEQQPRP, the “shrunken log2 fold change” value worked out at 0.096.

As to RRIRYRPPRLPRPRPRPCWQPRP, the “shrunken log2 fold change” value was found to be 0.013.

For the sequence RRIRTRPPRLPRPRPRPTKHPRP, the “shrunken log2 fold change” value was -0.258.

Turning to RRIRIRPPRLPRPRPRPKLLPRP, the “shrunken log2 fold change” value worked out at 0.0419.

For RRIRLRPPRLPRPRPRPDMMPRP, the “shrunken log2 fold change” value is -0.295.

As to RRIRMRPPRLPRPRPRPQMQPRP, the “shrunken log2 fold change” value amounted to 0.108.

For RRIRSRPPRLPRPRPRPNADPRP, the “shrunken log2 fold change” value amounted to 0.113.

Consider RRIRVRPPRLPRPRPRPQYMPRP, for which the “shrunken log2 fold change” value was -0.554.

Regarding RRIRLRPPRLPRPRPRPLGIPRP, the “shrunken log2 fold change” value was -0.199.

For the sequence RRIRNRPPRLPRPRPRPQENPRP, the “shrunken log2 fold change” value was -0.151.

For the sequence RRIRFRPPRLPRPRPRPDIYPRP, the “shrunken log2 fold change” value was -0.0949.

For RRIRPRPPRLPRPRPRPHVIPRP, the “shrunken log2 fold change” value was -0.617.

As to RRIRRRPPRLPRPRPRPMAAPRP, the “shrunken log2 fold change” value came out at 1.15.

In the case of RRIRARPPRLPRPRPRPCGDPRP, the “shrunken log2 fold change” value was -0.239.

With RRIRLRPPRLPRPRPRPFKVPRP, the “shrunken log2 fold change” value was determined as 0.0321.

Consider RRIRARPPRLPRPRPRPTGDPRP, for which the “shrunken log2 fold change” value is 0.604.

In the case of RRIRMRPPRLPRPRPRPTLMPRP, the “shrunken log2 fold change” value came to 0.0126.

Consider RRIRSRPPRLPRPRPRPGRCPRP, for which the “shrunken log2 fold change” value is 0.247.

As to RRIRSRPPRLPRPRPRPQKIPRP, the “shrunken log2 fold change” value was -0.53.

On to RRIRRRPPRLPRPRPRPFAFPRP, for which the “shrunken log2 fold change” value was 0.0757.

Turning to RRIRDRPPRLPRPRPRPGYRPRP, the “shrunken log2 fold change” value came out at 0.000964.

Turning to RRIRFRPPRLPRPRPRPFDWPRP, the “shrunken log2 fold change” value worked out at 0.109.

Turning to RRIRHRPPRLPRPRPRPSKYPRP, the “shrunken log2 fold change” value is -0.776.

In the case of RRIRKRPPRLPRPRPRPLECPRP, the “shrunken log2 fold change” value was -0.00691.
